Source: article PMC3319784

B1: first Sam domain of Odin (Odin-Sam1) (domain or fragment)
chain: ISGLRTLEQSVGEWLESIGLQQYESKLLLNGFDDVHFLGSNVMEEQDLRDIGISDPQHRRKLLQAARSLPKVKALGYDGN

What was measured:
[1] = target: first Sam domain of Odin (Odin-Sam1) (human) (UniProt Q92625); test: ITC
[2] = target: Sam domain of the EphA2 receptor (EphA2-Sam), wild type (human) (UniProt P29317); test: SPR

Molecule	Kd [1] [µM]	stoichiometry N [1]	Kd [2] [µM]
Sam domain of the EphA2 receptor (EphA2-Sam), wild type (from UniProt P29317 902-976) (domain or fragment)	0.62	1	
B1			5.5
